Laboratory results reported in publication PMC8967717 (Nature, 2022).

How the values were obtained:
[1] = biological target: SARS-CoV-2 wild-type spike (S) protein (SARS-CoV-2, WT (MN908947), UniProt P0DTC2)
[2] = biological target: T1, SARS-CoV-2 wild-type spike receptor-binding domain (SARS-CoV-2, WT (MN908947), UniProt P0DTC2)
[3] = biological target: T1, SARS-CoV-2 wild-type spike …; test: BLI; conditions: both partners purified

B1: XGv302 (antibody, V domains shown)
VH: EVQLVESGGGLIQPGGSLRLSCAASGITVSSNYMNWVRQAPGKGLEWVSVIYAGGTTFYADSVKGRFTISRDSSKNTLSLQMNSLRVEDTAVYYCVRNLVVYGMDVWGQGTTVTVSS
VL: DIQLTQSPSSLSASVGDRVTITCRASQGISSDLAWYQQKPGKAPKLLIYGASTLQSGVPSRFSGSGSGAHFTLTINSLQPEDFAIYYCQQLNSEFLTFGGGTKVEIK
binding result [1]: binds
binding result [2]: binds

B2: XGv303 (antibody, V domains shown)
VH: EVQLVESGGGLIRPGGSLRLSCAASGITVSSNYMTWVRQAPGKGLEWVSVIYSGGTTFYADSVKGRFTISRDNSKNTLYLQMNSLRAEDTAVYYCARNLVVYGMDVWGQGTTVTVSS
VL: DIQLTQSPSSLSASVGDRVTITCRASQGISSDLAWYQQKPGKAPKLLIYGASTLQGGVPSRFSGSGSGTDFTLTISRLQPEDCAIYYCQQLNSEFLTFGGGTKVEIK
binding result [1]: binds
binding result [2]: binds

B3: XGv304 (antibody, V domains shown)
VH: EVQLVESGGGLIQPGGSLRLSCEASEITVSSNYMRWVRQAPGKGLEWVSLIYAGGSTFYADSVKGRFTISRDNSKNTLYLQMNSLRVEDTAVYYCARDLMVYGMDVWGQGTTVTVSS
VL: DIQLTQSPSSLSASVGDRVTITCRASQGISSYLAWYQQKPGKAPNLLIYGASTLQSGVPSRFSGSGSGTDFTLTISSLQPEDFATYYCQHLNSDPLTFGGGTKVEIK
binding result [1]: binds
binding result [2]: binds

B4: XGv265 (antibody, V domains shown)
VH: QITLKESGPTLVKPTQTLTLTCNFSGFSLNTYGVGVGWIRQPPGKALEWLALIYWDGDERYGPFFKNKVTIAKDTSKNQVVLTMTNMDPVDTATYYCARHLIPTIFDYWGQGTLVTVSS
VL: QSALTQPASVSGSPGQSITISCTGTSSDVGGSNYVSWYQHHPDRAPKLLIYEVTNRPSGVSNRFSGSKSANTASLTISGLQAEDEADYYCSSYTTTSTHILFGGGTKLTV
Kd [3]: 0.59 nM

B5: XGv387 (antibody, V domains shown)
VH: EVQLVESGGGLIQPGGSLRLSCAASGVIVSSNYMSWVRQAPGKGLEWVSVMYSGGSTFYADSVKGRFTISRDNSKNTLYLQMNRLRAEDTAVYFCARGDGGSYLGGAFDIWGQGTMVTVSS
VL: DIQMTQSPSSLSASVGDRVTLTCRASQSISTYLNWYQQKPGKAPKLLIYAASSLQSGVPSRFSGSGSGTDFTLTINSLQPEDFATYYCQQSYSLPALTFGGGTKVEIK
binding result [1]: binds
binding result [2]: binds

B6: XGv287 (antibody, V domains shown)
VH: QVQLVQSGAEVKKPGASVKVSCKTSGYTFTTYYMHWVRQAPGQGLEWMGIINPSDGSTNYAQKFQDRVTLTKDTSTSTFYMELSSLTSEDTAKYYCARAEGSSWLGWFDPWGQGTLVTVSS
VL: QSVLTQPPSASGTPGQRVTISCSGSNSNIGNHFVYWYQQLPGKAPKLLIYRNNQRPSGVPDRFSGSKSGTSASLAISGLRSEDEADYYCASWNDGLSASGWVFGGGTKLTV
binding result [1]: binds
binding result [2]: binds

B7: XGv291 (antibody, V domains shown)
VH: QVQLVQSGAEVKKPGASVEISCKASGYSFTKYYVHWVRQAPGQGLEWMGIVNPNGGASYAQKFQGRVTMTSDTSTTTFYMEVSGLRSDDTAVYYCARAEGSSWLGWFDPWGQGTLVTVSS
VL: QSVLTQPPSASGTPGQRVTISCSGSTSNIGSKDVYWYQQLPGTAPKLLIYRNNQRPSGAPDRFSASKSGTSASLAISGLRSEDEADYYCAVWDDGLSASGWLFGGGTKLTV
binding result [1]: binds
binding result [2]: binds

B8: XGv293 (antibody, V domains shown)
VH: QVQLVQSGAEVKKPGASVKVSCKASGYTFTSYFLHWVRQAPGQGLEWLGIIDPSGGASYAQKFQGRVTMTSDTSTSTVYMDLGSLRSEDTAVYYCARAEGTSWLGWFDPWGQGSLVTVSS
VL: QSVLTQPPSASGTPGQRVTISCSGSSSNIGTNYVYWYQQLPGTAPKLLIYRNYQRPSGVPDRFSGSKSGTSASLAISGLRSEDEAEYYCAAWDNGLSGSGWVFGGGTKLTVL
binding result [1]: binds
binding result [2]: binds

B9: XGv295 (antibody, V domains shown)
VH: QVQLVQSGAEVKKPGASVKVSCKASGYIFTNYYIHWVRQAPGQGLEWMAIFNPSAATASYAQKFQGRVTMTRDTSTTTVYMELRSLRFDDTAVYYCARAEGTSWLGWFDPWGQGTLVTVSS
VL: QSVLTQPPSASGTPGQRVTVSCSGSSSNIGSHDVYWYQQLPGTAPKLLIYKNDQRPSGVPDRFSGSTSGTSASLAISGLRSEDEADYYCAAWDDGLSGSGWVFGGGTKLTVL
binding result [1]: binds
binding result [2]: binds

B10: XGv297 (antibody, V domains shown)
VH: QVQLVQSGAEVKKPGASVKVSCRTSGYTFTAYYIHWVRQVPGQGLEWMGIINPSGGGASYAQTFQGRVSLTRDTSTRTVYMDLSSLISEDTAVYYCARAEGTHWLGWFDPWGQGTLVTVSS
VL: QSVLTQPPSASGTPGQRVTISCSGSSSNIASNSVYWYQQLPGTAPKLLIYRNNQRPSGVPDRFSGSTSGTSASLAISGLRSEDEADYYCAAWDDNLSGSGWVFGGGTKLTVL
binding result [1]: binds
binding result [2]: binds

B11: XGv345 (antibody, V domains shown)
VH: QVQLQESGPGLVKPSQTLSLTCTVSGGSIRSGSYYWSWIRQPAGKGLEWIGRVYTSGSTNYNPSLKTRVTISLETSKNHFSLKLSSVTAADTAVYYCARGEWEEDFALWGRGTLVTVSS
VL: DIQMTQSPSSLSASVGDRVTITCRASQSIASHLNWYQQKPGKAPKLLIYGASTLQSGVPSRFSGSGSGTAFTLTISSVQPEDFATYYCQQSYSAITFGQGTRLEIK
binding result [1]: binds
binding result [2]: binds

B12: XGv402 (antibody, V domains shown)
VH: QVQLVESGGGVVQPGRSLRLSCAASGFTFNNYAMHWVRQAPGKGLEWVAVISYDGSNEFYLDSVKGRFAISRDNSKNTLYLQTNSLRGEDTAVYYCARESRRGADYWGQGTLVTVSS
VL: DIQMTQSPSSLSASVGDRVTITCRASQIISNYLNWYQQKPGKAPKLLIYAASSLQSGVPSRFSGSGSGTDFTLTISSLQPEDSATYYCQQSFSPLWTFGPGTKVEIK
binding result [1]: binds
binding result [2]: binds

B13: XGv420 (antibody, V domains shown)
VH: QVQLQESGPGLVKPSGTLSLTCAVSGGSINSNNWWSWVRQPPGKGLEWIGEIYHNGNTNYNPSLKSRVTISVDTSKNQFSLRLSSVTAADTAVYYCARGDSLDWFDPWGQGTLVTVSS
VL: QSALTQPASVSGSPGQSITISCTGTSSDVGSYNYVSWYQQLPGKAPKLMIYDVSNRPSGVSNRFSGSKSGNTASLTISGLQAEDEADYYCSSYTSSSTLVFGTGTKVTVL
binding result [1]: binds
binding result [2]: binds

B14: XGv286 (antibody, V domains shown)
VH: QVQLVQSGAEVKKPGASVKVSCKASGYTFSSYYIHWVRQAPGQGPEWMAIINPGDGGASYAQKFQGRVTLTRDTSTSTLYMELSSLRSEDTAVYYCARAEGSSWLGWFDPWGQGTLVTVSS
VL: QSVLTQPPSASGTPGQRVTISCSGSSSNIGSNYVYWYQQLPGTAPKLLIYRNNQRPSGVPDRFSGSRSGTSASLAISGLRSEDEADYYCAAWDDGLSGSGWVFGGGTKLT
binding result [1]: binds
binding result [2]: binds

B15: XGv288 (antibody, V domains shown)
VH: QVQLVQSGAEVKKPGASVKVSCKASGYTFTNYYIHWVRQAPGQGLEWMAIINPSGGGASYAHKFQGRVTMTRDTSTSTLYMELISLRSDDTAVYYCARAEGSSWLGWFDPWGQGTLITVSS
VL: QSVLTQPPSASGTPGQRVTISCSGSSSNIGSNYVYWYQQLPGTAPKLLIYRNAQRPSGVPDRFSGSKSGTSASLAISGLRSEDEADYYCAAWDDGLSGSGWVFGGGTKLTV
binding result [1]: binds
binding result [2]: binds

B16: XGv290 (antibody, V domains shown)
VH: QVQLVQSGAEVKKPGASVKVSCKASGYTFKNYHMHWVRQAPGQGLEWMGIINPSGGGSSYAQKFQGRVTMTGDTSTSTVYMELSSLRSEDTAVYYCARAEGSSWLGWFDPWGQGTLVTVSS
VL: QSVLTQPPSASGTPGQRVTISCSGSSSNIGSNYVYWYQQLPGTAPKVLIYRNNQRPSGVPDRFSGSKSGTSASLAISGLRSEDEAEYYCAAWDDGLSGSGWLFGGGTKLT
binding result [1]: binds
binding result [2]: binds

B17: XGv294 (antibody, V domains shown)
VH: QVQLVQSGAEVKKPGASVKVSCKASGYTFTRHYIHWVRQAPGQGLEWMGIINPSGGGASYAQKFQGRVTMTRDTSTSTVYMEVSSLRYEDTAVYYCARAEGGSWLGWFDPWGQGTLVTVSS
VL: QSVLTQPPSASGTPGQRVTISCSGGSSNIGNNYVYWYQQLPGTAPKLLIYGNNQRPSGVPDRFSGSKSGTSASLAISGLRSEDEADYHCAAWDDGLSGSGWVFGGGTKLT
binding result [1]: binds
binding result [2]: binds

B18: XGv338 (antibody, V domains shown)
VH: EVQLVESGGGLVQPGGSLRLSCAASGFPFITYWMSWVRQTPGKGLEWVANIKEDGSEKNYVDSVKGRFTVSRDNAENSLYLRMNSLRIEDTAVYYCAREIRRTIPTSGMDVWGQGTTVTVSS
VL: SYELTQPPSVSVSPGQTARITCTGDALPKQYAYWYQQKPGQAPVLIISKDNERASGIPERISGSRSGTTVTLTISGVQAEDEADYYCQSADSSASYSYVFGTGTKVTVL
binding result [1]: binds
binding result [2]: binds

B19: XGv296 (antibody, V domains shown)
VH: QVQLVQSGAEVKKPGASVKISCKASGYTFTDHYVHWVRQAPGQGLEWMAIVNPSDGSTSYAQKFQGRVTMTSDTSTTTIYMELSSLRSGDTAVYYCARAEGSSWLGWFDPWGQGTQVTVSS
VL: QSVLTQPPSASGTPGQRVTISCSGSSSNIGGHYVYWYQQFPGTAPKLLIYRSNQRPSGVPDRFSGSKSGTSASLAISGLRSEDEADYFCAAWDDGLRGSGWVFGGGTTLTV
binding result [1]: binds
binding result [2]: binds
